# Patent US7674958B2 (Athenix Corporation, priority 2005, dated 2010)
# Residue numbers refer to the chain shown, from its start.
# B1: GRG23(L3P1.B20): GRG23 variant (SEQ ID NO:27), V206→I (protein)
# chain: METDRLVIPGSKSITNRALLLAAAAKGTSVLVRPLVSADTSAFKTAIQALGANVSADGDNWVVEGLGQAPHLDADIWCEDAGTVARFLPPFVAAGQGKFTVDGSEQLRRRPLRPLVDGIRHLGARVSSEQLPLTIEASGLAGGEYEIEAHQSSQFASGLIMAAPYARQGLRVRIPNPVSQPYLTMTLRMMRDFGLETSTDGATVSIPPGRYTARRYEIEPDASTASYFAAASAVSGRSFEFQGLGTDSIQGDTSFFNVLGRLGAEVHWAPNSVTISGPERLNGDIEVDMGEISDTFMTLAAIAPLADGPITITNIGHARLKESDRISAMETNLRTLGVQTDVGHDWMRIYPSTPHGGRVNCHRDHRIAMAFSILGLRVDGITLDDPQCVGKTFPGFFDYLGRLFPEKALTLPG
# modifications: grg23(L3P1.B20)
# B2: GRG23(L3P1.B3): GRG23 variant (SEQ ID NO:29), D75→H, E217→K (protein)
# chain: B1 chain with D75H, I206V, E217K
# modifications: grg23(L3P1.B3)
# B3: GRG23(L3P1.F18): GRG23 variant (SEQ ID NO:31), T274→I (protein)
# chain: B1 chain with I206V, T274I
# modifications: grg23(L3P1.F18)
# What was measured:
# Assay type in all cases: cell-based
# [1] = tested on: E. coli strain DH5α with pUC18-Grg23 (pAX1927); assay: Growth on glyphosate plates, grg23-expressing cells; details: concentration to which resistance is conferred
# Procedure: Isopropyl-B-D-thiogalactopyranoside (IPTG; 0.1 mM) was also added to the plates. As a control, cells containing pUC18 vector alone were transformed and streaked onto glyphosate plates.
# [2] = tested on: E. coli cells containing pAX1967 (GRG51); assay: Glyphosate screen on M63+ plates, GRG51-expressing cells; details: 2 days, 37° C.
# Procedure: Cells containing pAX1967 were plated onto M63+ plates containing antibiotic and either 0 mM or 20 mM glyphosate. Growth was scored after two days growth at 37° C.
# BL21*DE3 E. coli cells = assay: Selection of mutant GRG23 enzymes conferring glyphosate resistance in E. coli on 150 mM glyphosate plates; details: clones selected on 150 mM glyphosate; extract activity equal to or superior to GRG23
# Procedure: The mutagenized syngrg23 libraries were transformed into E. coli strain BL21*DE3 star (Invitrogen). Following transformation, individual colonies were plated on 1× M63 medium containing 150 mM glyphosate to select for clones that had retained enzymatic activity and growth tolerance.
# The plates were incubated for 36 hours at 37° C.
# Library plates of extracts of mutagenized syngrg23 clones were assayed for improved enzymatic activity as follows: Library clones were pinned into 96-well blocks containing LB medium and were grown to an O.D. of about 0.6. IPTG was then added (0.5 mM) and the blocks were incubated overnight at 20° C. to induce protein expression. Protein extracts were prepared from the cell pellets using POP culture reagent (Novagen), and the enzymatic activity in the crude lysates was measured. […] The DNA sequences of the clones corresponding to these extracts were determined.
Molecule,glyphosate resistance [1],resistance to glyphosate [2],Glyphosate resistance of GRG23 variants (BL21*DE3 E. coli cells)
"O=C(O)CNCP(=O)(O)O [glyphosate, N-phosphonomethylglycine]",at least 100 mM,20 mM,
B1,,,retained glyphosate resistance
B2,,,retained glyphosate resistance
B3,,,retained glyphosate resistance
